Source: US20250019422A1 (MAX PLANCK GESELLSCHAFT ZUR F RDERUNG DER WISSENSCHAFTEN E V, published 2025)

Legend:
wt_RBD-AviHis [1] = biological target: T1, wt_RBD-AviHis (SARS-CoV-2 (original Wuhan strain)); assay: BLI (Octet), biotinylated RBD on streptavidin biosensors, VHH in solution
wt_RBD-AviHis [2] = biological target: T1, wt_RBD-AviHis; assay: BLI: biotinylated wild type RBD immobilised, VHH in solution, mass transport fit
wt_RBD-AviHis [3] = biological target: T1, wt_RBD-AviHis; assay: as above; remark: listed apart in the source

Binder | Kd (wt_RBD-AviHis [1]) [nM] | Kd (wt_RBD-AviHis [2]) [nM] | Kd (wt_RBD-AviHis [3]) [nM]
Re32C08 (VHH) VHH: QVQLVESGGGLVQPGGSLRLSCETSGITLDYYAIGWFLQAPGKEREGVACMRNWDGSTVYAPSVKGRFTISRDNDKKAAYLEMNSLKSEDTGVYYCAAGPLPPGHSCRIPTPLGYDDWGQGTQVTVSS | ≤ 0.01 | – | –
Re32E06 (VHH) VHH: QVQLVESGGGLVQPGGSLRLSCETSGITLDYYAIGWFLQAPGKEREGVACMRNWDGSTLYAPSVKGRFTISRDNDKKAVYLEMNSLKSEDTGVYYCAAGPLPPGHSCRIPTPLGYDDWGQGTQVTVSS | ≤ 0.01 | – | –
Ma6F06 (VHH) VHH: QVQLVESGGGLVQPGGSLRLSCATSGITLDYYAIGWFLQVPGKEREGVACMRNWDGSTLYAPSVKGRFTISRDADKEVAYLEMNSLKSEDTGVYYCAAGPLPPGHSCRIPTPLGYDDWGQGTQVTVSS | ≤ 0.01 | – | –
Re32A10 (VHH) VHH: QVQLVESGGGLVQPGGSLRLSCATSGITLDYYAIGWFLQAPGKEREGVSCMRSSDGSTVYAPSVKGRFTISRDNAKKMVYLEMNSLKSEDTGVYYCAAGPLPPGTSCRIPTPLGYDDWGQGTQVTVSS | 0.004 | – | –
Re32G01 (VHH) VHH: QVQLVESGGGLVQPGGSLRLSCETSGITLDYYAIGWFLQAPGKDREGVACMRNWDGSTLYAPSVKGRFTISRDADKEVAYLEMNSLKSEDTGVYYCAAGPLPPGHSCRIPTPLGYDDWGQGTQVTVSS | 0.016 | – | –
Re32B02 (VHH) VHH: QVQLVESGGGLVQPGGSLRLSCATSGITLDYYAIGWFLQAPGKEREGVSCMRSSDGSTVYAPSVKGRFTISRDNAKKMVYLEMNSLKSEDTGVYYCAAGPLPPGTSCRIPTPLGYDDWGQGTQVTVSS | ≤ 0.01 | – | –
Ma2E06 (VHH, also called Ma02E06) VHH: QVQLVESGGDLVQPRGSLRLSCAASGITLDYYAIGWFRQAPGKEREGVSYISNTNDKTDYADSVKGRFTISRDNAENTVFLQMNSLQPEDTAVYYCATVPGTYYGGRWYYTWHPEAVRYWGKGTQVTVSS | 0.04 | – | –
Re32D03 (VHH) VHH: QVQLVESGGGLVQPGGSLRLSCAISGITLDYYAVGWFLQAPGKEREGISCMRNWDGRTVYAPSVKGRFTISSDNAKKMVYLEMDNLKSEDTGVYYCAAGPLPPGISCRIPTPLGYDDWGQGTQVTVSS | ≤ 0.01 | ≤ 0.01 | –
Re31A08 (VHH) VHH: QVQLVESGGGLVQPGGSLRLSCAASGITLDYYSIGWFRQAPGKEREGVSCTSSRDDSTDYADSVKGRFTISRDNAKNSVYLQMNSLNPEDTAVYYCALTPATYYSGRYYFQCPPHGMDYWGKGTLVTVSS | 0.06 | – | –
Re6H06 (VHH) VHH: QVQLVESGGGLVQPGGSLRLSCAASGVTLDYYAIGWFRQAPGKEREGVSCTSSSDGSTYYADSVKGRFTISRDNAKNTVYLQMNSLKPEDTGVYYCAVVPQTYYGGKYYSQCTANGMDYWGKGTLVTVSS | ≤ 0.01 | – | ≤ 0.01
Re32F02 (VHH) VHH: QVQLVESGGGLVSPGGSLKLSCAASGLTLDYYGIGWFRQVPGKEREGVSCLGVPDNRTLYAPSVKGRFTISRDNAKNTYYLEMNSLNPEDSAVYYCAAGPVVPGHMCRIPTPLGYDYWGQGTLVTVSS | ≤ 0.01 | – | –
Re9B09 (VHH, also called ReB09) VHH: QVQLVESGGGLVQPGGSLRLSCAASGFTLDYYAIGWFRQAPGKEREGVSRISSSDGSTDYADSVKGRFTISRDNAKNTVYLQMNSLKPEDTAVYYCATVPGTYYSGNWYYTWHPEAVDYWGKGTQVTVSS | ≤ 0.01 | 0.03 | –
Re31A12 (VHH) VHH: QVQLVESGGGLVQSGGSLRLSCLTSGVTLDYYAIGWFRQAPGKEREGVSCTSSSDGSTNYSDSVKGRFIISRDNAKNTVYLQMNSLKPEDTAVYYCAVTPATYYGGRYYFQCPYHDMHYWGKGTLVTVSS | 0.12 | – | –
Re5D06R15 (VHH) VHH: QVQLVESGGGLVQPGGSLRLSCAASGITLDYYAMGWFREAPGKEREGVARIRNSDGSTNYADSVKGRFTMSRDNAKDTYYLQMNSLEPEDTADYYCAYGPLTKYGSSWYWPYEYDYWGQGTQVTVSS | ≤ 0.01 | – | –
Re5D06 (VHH) VHH: QVQLVESGGGLVQPGGSLRLSCAASGITLDYYAIGWFRQAPGKEREGVSRIRSSDGSTNYADSVKGRFTMSRDNAKNTVYLQMNSLKPEDTAVYYCAYGPLTKYGSSWYWPYEYDYWGQGTQVTVSS | – | – | ≤ 0.01
